# Assay results taken from publication doi:10.1101/2024.07.11.603087, “Rational Design of a Flavoenzyme for Aerobic Nicotine Catabolism” (bioRxiv, 2024).
# B1: PnaoΔN30 (residues 31 to 497) (enzyme, Pseudomonas putida S16, UniProt F8G0P1 31-496, looked up)
# chain: IASQLLTLSAPAEAAVKTNVGPSRAGVGYDVIVIGGGFAGVTAAREASRSGLKTLILEGRSRLGGRTFTSKLQNQKVELGGTWVHWTQPNVWTEIMHYGLEVEETVGLANPETVIWVTEDNVKRAPAAEAFEIFGSACNEYYKEARNIYPRPFEPFFERKKLQHVDGLSAADYLEKLPLTREQKDMMDSWLSGNGHNYPETIAYSEIMRWFALSNFNMPTMFDSIARYKIKTGTHSLLEAIMADGNSEVKLSTPVTKVNQDKDKVTVTTEDGVFTASAVIVAVPINTLHDIEYSPKLSAAKVDMGSQRHAGAGVKGYIRVKQNVGNVMTYAPARNKLTPFTSVFTDHVDESGTLLIAFSADPKLIDINDIKAVEKALQPLLPGVEVTASYGYDWNLDPFSKGTWCTYRPNQTTRYLTELQKREGRLFFAGSDMANGWRGFIDGAIENGREVGHQVATYLKRENDNA
# notes: Pnao, flavin-dependent pseudooxynicotine oxidase of Pseudomonas putida S16, N-terminal truncation of 30 residues, residues 31 to 497; Cloned into pET-28a between NcoI and XhoI, which would likely give a C-terminal His6 tag (surmised); also called pseudooxynicotine amine oxidase; source: E. coli BL21(DE3), purified (Ni2+-NTA, size-exclusion chromatography)
# Biological target: the molecule itself
# Assay: SEC; Superdex 200 Increase 10/300 GL; molecular weight from elution, consistent with two molecules
protein,measurement,value
B1,stoichiometry N,2
